Assay results: US20040208887A1

B1: Fab clone 4:6 (Fab, V domains shown)
VH: VQLLEQSGAEVKKPGASVKVSCKASGYTFTKYYLHWVRQAPGQGLEWMGFINPSGGSTSSAQKFQGRISMTRDTSTTTVYMEVNSVTSEDTAVYYCARVGRLGVGATGAFDLWGQGTMVTVSS
VL: AELTQSPSSLSASVGDRVTITCQASQDINYSLNWYQQKPGKPPKLLIYYASHSDTGVPSRFSGGGSGTRFTLTIYSLQPEDIATYYCQHFDHVPRYTFGPGTKVDLK
B2: Fab clone 6a:5 (Fab, V domains shown)
VH: EVQLLESGPGLVKPSQTLSLTCAISGDNVSRKSAAWNWIRQSPSRGLEWLGRTYHMSKWYSVYATSLKSRININVDTSRNQFALQLRSVTPEDTAVYYCAREGPEWAVGGTYGMDVWGQGTTVTVSS
VL: AELTQSPDTLSLSPGERATLSCRASQSVNNNYLAWYQQKPGQAPRLLIYGASSRATGIPDRFSGSGSETDFTLTISRLEPEDFAVYYCQQYDSSRTFGQGTKVEIK

Molecular target: recombinant E2 (genotype 1a) (hepatitis C virus genotype 1a) (UniProt P26664)
Assay: ELISA, E2 coated as negative control antigen; crude periplasmic Fab

Chain of recombinant E2 (genotype 1a) (hepatitis C virus genotype 1a) (P26664 384-715 limits assumed): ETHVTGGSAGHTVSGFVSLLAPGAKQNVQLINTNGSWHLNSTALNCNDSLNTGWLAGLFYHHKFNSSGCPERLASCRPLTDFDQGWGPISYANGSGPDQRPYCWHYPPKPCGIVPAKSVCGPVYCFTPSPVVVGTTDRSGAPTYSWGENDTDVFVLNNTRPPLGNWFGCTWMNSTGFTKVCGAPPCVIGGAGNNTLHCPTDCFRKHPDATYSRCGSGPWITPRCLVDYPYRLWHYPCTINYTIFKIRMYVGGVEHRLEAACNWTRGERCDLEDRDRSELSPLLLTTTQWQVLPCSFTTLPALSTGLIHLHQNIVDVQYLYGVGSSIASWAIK

Binder	OD405 nm [OD405 nm]
B1	0.08
B2	0.03
